Here are results for 15 molecules from patent US20180086804A1 (COMMISSARIAT A L ENERGIE ATOMIQUE ET AUX ENERGIES …, published 2018).

Experiment [1] has as its target T1, HLA-DR4 (HLA-DRB1*04:01) (human).
T1 construct: mature; purified from homozygous EBV-transformed lymphoblastoid cells with antibody L243
Briefly: competition ELISA vs biotin-HA 306-318.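 Further: HLA and competitor incubated 24 to 72 h, maximal signal taken from wells lacking competitor, background from wells lacking HLA molecule.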 Background: ELISA stands for enzyme-linked immunosorbent assay.

Experiment [2] addresses T2, HLA-DR1 (HLA-DRB1*01:01) (human).
T2 construct: mature; class II HLA molecule purified from homozygous EBV-transformed lymphoblastoid cells with antibody L243
The experiment in a line: competition ELISA vs biotin-HA 306-318.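 Further: HLA and competitor incubated 24 to 72 h, maximal signal taken from wells lacking competitor, background from wells lacking HLA molecule.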

In experiment [3] the target is T3, HLA-DR11 (HLA-DRB1*11:01) (human).
T3 construct: mature; purified from homozygous EBV-transformed lymphoblastoid cells with antibody L243
Briefly: competition ELISA vs biotin-HA 306-318.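 Further: HLA and competitor incubated 24 to 72 h, maximal signal taken from wells lacking competitor, background from wells lacking HLA molecule.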

Experiment [4] concerns the target T4, HLA-DR3 (HLA-DRB1*03:01) (human).
T4 construct: mature; purified from homozygous EBV-transformed lymphoblastoid cells with antibody L243
Briefly: competition ELISA vs biotin-MT 2-16.

Experiment [5] addresses T5, HLA-DR7 (HLA-DRB1*07:01) (human).
T5 construct: mature; purified from homozygous EBV-transformed lymphoblastoid cells with antibody L243
The experiment in a line: competition ELISA vs biotin-YKL.

For experiment [6], the target named is T6, HLA-DRB5 (HLA-DRB5*01:01) (human).
T6 construct: mature; purified from homozygous EBV-transformed lymphoblastoid cells with antibody L243
The experiment in a line: competition ELISA vs biotin-HA 306-318.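 Further: HLA and competitor incubated 24 to 72 h, maximal signal taken from wells lacking competitor, background from wells lacking HLA molecule.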

Experiment [7] deals with T7, HLA-DR15 (HLA-DRB1*15:01) (human).
T7 construct: mature; purified from homozygous EBV-transformed lymphoblastoid cells with antibody L243
Briefly: competition ELISA vs biotin-A3 152-166.

No end group written: not given here.

Regarding LAVNDVDAEDGADPN-NH2 [CCNB1 151-165], the relative affinity in experiment [1] was 667.

Regarding PKYLLGREVTGNMRA-NH2 [CCNB1 189-203], the relative affinity in experiment [2] stood at 17; in experiment [1] it was 34; in experiment [3], 3; in experiment [4] it was 764.

With GEWTPTLQHYLSYTE-NH2 [CCNB1 359-373], the relative affinity in experiment [5] was determined as 0.4; in experiment [2] it was 548; in experiment [1] it was 500; in experiment [6], 224; in experiment [3] it was 22; in experiment [7] it was 0.2.

As to SDVILAVNDVDAEDG-NH2 [CCNB1 147-161], the relative affinity was 54 in experiment [1] and 7 in experiment [7].

As for LDYDMVHFPPSQIAA-NH2 [CCNB1 332-346], the relative affinity in experiment [5] came out at 20; in experiment [2] it was 224; in experiment [1], 289; in experiment [6], 1580; in experiment [3] it was 511; in experiment [7], 36.

On to DRFMQNNCVPKKMLQ-NH2 [CCNB1 231-245], for which the relative affinity is 11 in experiment [2], 52 in experiment [1], 1580 in experiment [6] and 2000 in experiment [3].

Take EDLCQAFSDVILAVN-NH2 [CCNB1 140-154]: the results for the relative affinity in experiment [1], in experiment [4] and in experiment [7] were 1110, 161 and 207, respectively.

Take RALNFGLGRPLPLHF-NH2 [CCNB1 291-305]: the relative affinity in experiment [5] was 3; in experiment [2], 1; in experiment [1] it was 1410; in experiment [6], 4; in experiment [3] it was 1000; in experiment [7], 65.

As for SPMETSGCAPAEEDL-NH2 [CCNB1 128-142], the relative affinity in experiment [2] worked out at 3590.

EPVKEEKLSPEPILV-NH2 [CCNB1 108-122] had a relative affinity in experiment [2] of 894.

As for NKYATSKHAKISTLP-NH2 [CCNB1 402-416], the relative affinity in experiment [5] is 9; in experiment [2], 367; in experiment [1], 707; in experiment [6] it was 1730; in experiment [3] it was 4.

As to EQLQAKMPMKKEAKP-NH2 [CCNB1 54-68], the relative affinity in experiment [5] was 808; in experiment [2], 3740; in experiment [6] it was 35; in experiment [3] it was 1410.

With KPLEKVPMLVPVPVS-NH2 [CCNB1 81-95], the relative affinity stood at 524 in experiment [2] and 500 in experiment [1].

Take TGKVIDKKLPKPLEK-NH2 [CCNB1 71-85]: the relative affinity in experiment [6] was 250; in experiment [4], 228.

On to GAFCLALKILDNGEW-NH2 [CCNB1 347-361], for which the relative affinity was determined as 9 in experiment [3] and 1 in experiment [7].
